This is an account of results in patent US20190264171A1, “DIFFERENTIATION OF PLURIPOTENT STEM CELLS INTO CORNEAL CELLS” (TAMPEREEN YLIOPISTO, priority 2016, published 2019).

For the assay, the system named is human pluripotent stem cells cultured in feeder free conditions. The experiment in a line: Corneal epithelial differentiation of pluripotent stem cells cultured in feeder free conditions. The assay is classed as cell-based. The procedure: Feeder-free culture, xeno-free culture of human pluripotent stem cells was based on the use of recombinant Laminin-521 (Biolamina, Sweden) extracellular matrix protein coating and defined, xeno-free culture medium, the Essential 8™ Flex Medium (Life Technologies). The pluripotent stem cells were transferred to the culture system from the standard feeder cell based culture system by manually cutting undifferentiated colony parts with scalpel and plating to ln-521 coated (0.75-1.8 μg/cm^2 overnight at +4° C.) culture plates. The cells are allowed to grow near confluency with medium changed 3-4 times a week, and passaged with TrypLE™ Select Enzyme as single cells twice a week.
Differentiation of pluripotent stem cells cultured on feeder cells to corneal epithelial cells with the induction method disclosed in EP 2828380 comprising TGF-beta inhibitor, Wnt inhibitor and a fibroblast growth factor (10 μM SB-505124+10 μM IWP-2, 50 ng/ml bFGF), followed by differentiation in Cnt-30 epithelial medium on collagen IV matrix, yielded at best >90% p63 positive cells with correct corneal epithelial morphology.
However, prominent neuronal differentiation and cell detachment was recurrently observed as the induction method disclosed in EP 2828380 was used.
The human pluripotent stem cells cultured in the feeder free culture system as described above were differentiated to corneal epithelial cells by detaching the pluripotent cells with TrypLE™ Select Enzyme for 4 min at +37° C. On Day 0, embryoid bodies were created with overnight incubation with 5 μM Blebbistatin (Sigma, B05601) or 10 μM Y-27632 dihydrochloride (R&D Systems, 1254) in a xeno-free culture medium containing: Knockout-Dulbecco's Modified Eagle's Medium (ko-DMEM) supplemented with 15% Xeno-Free Knockout Serum Replacement (XF-ko-SR), 2 mM GlutaMax (all from ThermoFisher Scienfic), 1% MEM Eagle Non-Essential Amino acid solution (NEAA, Cambrex Bio Science), 50 U/ml penicillin/streptomycin (Cambrex Bio Science), 0.1 mM ß-mercaptoethanol (ThermoFisher Scienfic). […]

Take `Cc1ccc2nc(NC(=O)CSc3nc4c(c(=O)n3-c3ccccc3)SCC4)sc2c1` [IWP-2, reference compound]: the “cell survival on omitting the substance from the first phase induction medium” value (IWP-2 omitted from induction medium, collagen IV + laminin-521 matrix) is given as “notably enhanced cell survival”.

B1: BMP-4: bone morphogenetic protein 4 (Peprotech) (protein, UniProt P12644 293-408, looked up)
Bone morphogenetic protein 4: SPKHHSQRARKKNKNCRRHSLYVDFSDVGWNDWIVAPPGYQAFYCHGDCPFPLADHLNSTNHAIVQTLVNSVNSSIPKACCVPTELSAISMLYLDEYDKVVLKNYQEMVVEGCGCR
In the case of B1, under “25 ng/ml BMP-4 for 2 to 3 days after initial induction”, the “corneal epithelial cell morphology and marker expression” value was “best result of most cells with correct corneal epithelial cell morphology and marker expression”. Besides, the “epithelial morphology and marker expression after additional induction” value (BMP-4 induction (induction phase 3) after SB-505124/bFGF induction, total of 20-30 days of differentiation) is “best result with most cells having correct epithelial morphology and marker expression”.
